Measurements taken from the supplement of paper PMC9732359.
± gives the uncertainty stated by the source.

Test: protein stability index of a GFP-peptide fusion (yeast GPS) (PSI 1-4); higher = more stable; sorted into four equal gates, so the index is relative within each strain
Details: pdr5∆
In short: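 For each peptide, the protein stability index sums the read frequency in every gate after multiplying it by the gate number. Read frequencies came from plasmids that were PCR-amplified from each gate and Illumina-sequenced, with reads assigned to strains by barcodes. The gates were four equal bins of GFP/Cherry fluorescence ratio applied to mid-log yeast in leucine-free medium carrying a pooled library of tiled 17-residue yeast protein peptides fused downstream of GFP on a Cherry-expressing plasmid.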

In order of rising protein stability index:
1. IGVIQLAHYVVTAKLLG [FAS1]  1.23 ± 0.04
2. ILVPDLYHLVIMKFQSL [ECM29]  1.3 ± 0.086
3. IERIGHLLSINYGEKEE [PCI8]  1.33 ± 0.055
4. IRKTPLAQKKAHLAEIQ [RPL3]  1.39 ± 0.066
5. IELLSDLINILEKKGFS [LIN1]  1.43 ± 0.082
6. IKTRTVHELSKRVHTLL [ISW2]  1.49 ± 0.072
7. IRKLLEKINRMIIFLKN [CSI1]  1.5 ± 0.063
8. IRIYDLGKKKATVDEFP [RPL10]  1.51 ± 0.048
9. IITKNENFLKEVFQLRI [GAL11]  1.54 ± 0.067
10. IKILGSEGYQKTFSRLD [RPN4]  1.55 ± 0.15
11. IDVNLNFARQLLFNNDF [RRP40]  1.56 ± 0.057
12. IMWQLLDGVSYLHQNWV [SSN3]  1.59 ± 0.08
13. IKLGSTAIGIATKEGVV [PUP2]  1.63 ± 0.18
14. ISLRNNMFELAQQLVGV [SMC4]  1.74 ± 0.079
15. IRAQNFKSALANLEDII [RRP6]  1.75 ± 0.062
16. ISLIPELSVVLSGIIQD [RRI2]  1.76 ± 0.09
17. ILINTARIHAQNYLKTY [PRE9]  1.78 ± 0.073
18. ILPQQSKLKLKNLLRKN [ECM29]  1.79 ± 0.051
19. IEHPMTSAIEVLVGSCA [RPN1]  1.81 ± 0.042
20. IRFVCLSNCLANARDFG [BRR2]  1.81 ± 0.052
21. ISLYFNDILDELLCGMA [ECM29]  1.81 ± 0.069
22. ISLSFSRPASYGYFSVG [SIR4]  1.82 ± 0.06
23. IGGLLSKVREEVGDVCI [RPO31]  1.86 ± 0.067
24. IIERYIKSKADAWVSAA [PRP8]  1.88 ± 0.072
25. INLTQTYGISVVDVALK [NUT1]  1.91 ± 0.054
26. IPYSRNAPAWFKLSSES [RPS13]  1.92 ± 0.045
27. IDVMKSQIIPLMKKACY [SNU114]  2 ± 0.051
28. ISKHSKQAIYTRATASE [RPS25A]  2.03 ± 0.045
29. IPVYCFSHPAHQQRMSR [YCG1]  2.04 ± 0.044
30. IGDDGYDLLISTLTTIS [SRB5]  2.1 ± 0.058
31. IMDNDPVLFNRQPSLHK [RPO21]  2.17 ± 0.069
32. IKELRSKGYPIQFLTIG [FAS1]  2.22 ± 0.068
33. IRSERFKVARELKTEAA [ITC1]  2.25 ± 0.25
34. IKQTFKNDLFVIWSEDN [RPO21]  2.32 ± 0.063
35. IPQDFENEVSDIDVTIV [ESC2]  2.34 ± 0.092
36. ILTGTPLQNNLPELWAL [SNF2]  2.4 ± 0.044
37. IPGEEVEETEVPTVPPS [MED4]  2.42 ± 0.11
38. IKAFMDSTIGNSKVDMK [IRR1]  2.45 ± 0.16
39. IKDTANDNDITVKENES [UBP6]  2.45 ± 0.071
40. ILLQHKEKLTVQDCRYS [POP1]  2.45 ± 0.049
41. IKNGRIYFTVPNEFEIQ [RGR1]  2.49 ± 0.045
42. IQRTRERKKSIGSQRGR [DSN1]  2.5 ± 0.063
43. IEIKISDPLTVFSESCS [SNU114]  2.55 ± 0.073
44. ILLEPIYEVDITVHAPL [SNU114]  2.56 ± 0.06
45. IITNINAIFLSSEQDYS [YCG1]  2.58 ± 0.13
46. IQEYQLCDNFNHFSLSY [COR1]  2.61 ± 0.053
47. IKNIGKSLKNNFYRPLL [YML103C/NUP188]  2.62 ± 0.1
48. IKGIREYEEWQKSVSLL [YDL116W/NUP84]  2.66 ± 0.12
49. IKEKFDEFIKTHEDLPK [IRR1]  2.68 ± 0.095
50. IPSIPNPIANHTVTNSP [SNF5]  2.68 ± 0.036
51. IELNFDAVKDFKLGKFN [QCR2]  2.69 ± 0.17
52. IPIGHVHVIHFQHADNS [AAR2]  2.71 ± 0.073
53. IQEFLVVIEKRRKKILN [GRR1]  2.74 ± 0.097
54. IHKRYIDLEAPVQIVKR [RPS20]  2.78 ± 0.15
55. IHTQLSEIKQQINKAQI [YJL039C/NUP192]  2.8 ± 0.18
56. IQDSNGDVKNMEDVKIQ [SWI3]  2.8 ± 0.091
57. IIKRSNGQSLSPVRSDS [YMR153W/NUP53]  2.87 ± 0.058
58. IRKSETSGRYASYRICM [RPB5]  2.89 ± 0.063
59. IMAKRPFDKKSNSALFR [FAS1]  2.9 ± 0.062
60. INSGTFVKVTKATLELL [RPL7A]  2.92 ± 0.092
61. IRKQPDDIINNDEPSHK [SIR2]  2.95 ± 0.039
62. IPTKESLTRDFEQCCKE [YIL149C/MLP2]  2.96 ± 0.13
63. IGIVDYEAGASHGNPVV [FAS1]  2.99 ± 0.064
64. IQWYKSLLEKDIDAVNG [ISW2]  3.02 ± 0.075
65. IHLKQKLSESLDTRKEL [SMC3]  3.03 ± 0.24
66. ILTSLMRSKLEKLTLVT [CSN9]  3.03 ± 0.064
67. ISLLKNRRKQSFVLNKN [RPN4]  3.06 ± 0.25
68. INQIFSPEEQRSLLQEA [GAL11]  3.07 ± 0.063
69. IGAELKREESESAAVYN [SNF2]  3.08 ± 0.091
70. IRKLVKNGTIVKKAVTV [RPL19A]  3.08 ± 0.12
71. IEGVVILKKNPDYREEE [RPN1]  3.09 ± 0.09
72. IIGHNPDENKTRVRLPS [RPL2A]  3.09 ± 0.077
73. ILEDDFAVALKNEPDYS [CDC53]  3.09 ± 0.14
74. IGTADIFIRQLKENEEN [BRR2]  3.1 ± 0.3
75. IMNLITNEPCGAQFSRS [RPN4]  3.1 ± 0.3
76. IGAGVPSLEVASEYIET [FAS1]  3.12 ± 0.18
77. IFLAERRILPKPSRTSR [RPS7A]  3.15 ± 0.21
78. IKIEDFVDDMLRDYRFE [SNF5]  3.16 ± 0.073
79. ILGIHTSKMNLSEDVNL [RPT2]  3.16 ± 0.081
80. IQKQIETIQADLNHVTE [SMC2]  3.16 ± 0.053
81. INIQKKLEPKEIVRDIL [SIR4]  3.19 ± 0.12
82. IRIFRSELQRLSHENNV [RPT5]  3.21 ± 0.088
83. IDPDTKAPNAVVITFEK [RPB11]  3.22 ± 0.17
84. IEELDNPMVPSSVNEDT [PRP8]  3.22 ± 0.065
85. IPDMSKNVELGWKPLRY [SNU114]  3.23 ± 0.23
86. IEPELFNGYNPEKKEMI [FAS2]  3.25 ± 0.13
87. ILNDIETLEHNPVALEQ [BRR2]  3.25 ± 0.1
88. ILKLLNGFMESAIVNED [SOH1]  3.27 ± 0.18
89. IEINEDNSQDDQDRGAA [RRI2]  3.28 ± 0.23
90. IKVENLNDTTEKSKALE [SMC2]  3.3 ± 0.092
91. IEDKENSESTTQGGNVN [RPT5]  3.31 ± 0.14
92. IKESSKKIKGKSIQDIV [SRP21]  3.31 ± 0.092
93. INAQGEEIVVVASADYE [PRP8]  3.33 ± 0.096
94. IGARSQGAKTYLERTLD [PRE5]  3.34 ± 0.069
95. ILLSHHRASPADVSIKS [POP5]  3.4 ± 0.18
96. IGQSEELSDKEIYTVED [ISW2]  3.46 ± 0.14
97. IKKMLHLVWMKGTNDEG [YCS4]  3.51 ± 0.11
98. IGWCKEDPKRRADTMDF [YJL039C/NUP192]  3.56 ± 0.11

Same assay, conditions: san1∆

With IDESMPDTAIDSQMDEA [GRR1] the protein stability index was 2.85 ± 0.078.
